The source of these data is publication PMC11602132.

The test has as its target Non-structural protein 15 (Nsp15) from SARS-CoV-2 (SARS-CoV-2). The test is described as follows: SEC. On the technique in general: Size exclusion chromatography separates by hydrodynamic size, large species first.

The stoichiometry N is a count of units in the complex or per binding partner.

“Non-structural protein 15 (Nsp15) from SARS-CoV-2 (enzyme)” gave a stoichiometry N of 6.
